According to patent US7611711B2, “VEGFR-3 inhibitor materials and methods” (Vegenics Limited, priority 2001, dated 2009):
Ends that are not written are not given here. GST = glutathione-S-transferase

Target: T1, VEGFR-3/EpoR chimera expressed on BaF3 cells (UniProt P14753+P35916)
T1 construct: expressed in transfected cells; host or cells: BaF3 (IL-3 dependent murine pro-B cells)
T1 sequence (P35916+P14753 with tags, fused parts or gaps): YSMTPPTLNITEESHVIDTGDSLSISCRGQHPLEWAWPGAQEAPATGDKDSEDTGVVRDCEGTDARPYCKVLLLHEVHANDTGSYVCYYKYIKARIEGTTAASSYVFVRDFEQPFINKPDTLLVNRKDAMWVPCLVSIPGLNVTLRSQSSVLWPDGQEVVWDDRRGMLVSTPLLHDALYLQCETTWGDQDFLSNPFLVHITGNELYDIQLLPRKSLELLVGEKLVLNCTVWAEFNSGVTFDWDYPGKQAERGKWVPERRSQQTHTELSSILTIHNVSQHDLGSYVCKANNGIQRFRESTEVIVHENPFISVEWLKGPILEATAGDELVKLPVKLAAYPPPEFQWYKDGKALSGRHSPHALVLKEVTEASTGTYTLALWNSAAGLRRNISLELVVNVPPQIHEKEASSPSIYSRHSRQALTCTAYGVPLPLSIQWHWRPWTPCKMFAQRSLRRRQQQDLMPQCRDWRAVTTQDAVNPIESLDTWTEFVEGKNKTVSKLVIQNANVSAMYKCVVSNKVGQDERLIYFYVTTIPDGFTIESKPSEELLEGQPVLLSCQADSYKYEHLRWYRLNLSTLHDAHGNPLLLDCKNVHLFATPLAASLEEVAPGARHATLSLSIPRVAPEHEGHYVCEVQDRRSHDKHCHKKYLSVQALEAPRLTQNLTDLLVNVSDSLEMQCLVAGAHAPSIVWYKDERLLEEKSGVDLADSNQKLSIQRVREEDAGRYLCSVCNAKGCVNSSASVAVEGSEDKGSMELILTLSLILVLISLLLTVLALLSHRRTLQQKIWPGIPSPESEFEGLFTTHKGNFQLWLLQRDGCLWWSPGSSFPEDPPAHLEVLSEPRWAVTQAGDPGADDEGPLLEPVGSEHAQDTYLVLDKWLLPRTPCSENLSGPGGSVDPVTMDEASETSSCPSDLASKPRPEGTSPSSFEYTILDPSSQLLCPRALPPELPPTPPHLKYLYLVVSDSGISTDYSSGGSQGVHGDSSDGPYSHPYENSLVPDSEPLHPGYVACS
Assay: Bioassay for VEGFR-3 stimulation: viability (MTT) of BaF3 cells expressing a VEGFR-3/EpoR chimera, supplied with VEGF-C
Assay type: cell-based
Protocol: For the viability assay, the IL-3 dependent BaF3 cells expressing a VEGFR-3/EpoR chimera (Aschen et al, Eur J Biochem. 267(9):2505-15, 2000) were seeded in 96 well microtiter plates at 15000 cells/well in triplicates in the absence of IL-3 but supplied with the lOOng/ml VEGF-C and a range of concentrations of the selected peptides fused with GST. Cells were cultured for 48 h, during which time the cells incubated in cell culture medium alone had died. The viability of the cells was determined by the MTT reagent, which was added at a concentration of 0.5 mg/ml. After 2 h an equal volume of cell lysis solution was added (10%SDS/10 mM HCl) and allowed to incubate overnight at 37° C. The absorbance was measured at 540 nm.
The effects of the peptides fused to GST on the growth of BaF3-R3/EpoR were assessed using the MTT assay as described above and are depicted in FIG. 1. In this experiment, GST- CGYWLTIWGC (SEQ ID NO: 35) fusion protein was used for the inhibition of VEGF-C binding to VEGFR-3 expressed on BaF3 cells. In this experiment, a 20 uM concentration of the fusion protein sufficed to inhibit the binding completely as measured by the MTT cell death assay.

| Substance | competition with VEGF-C binding to VEGFR-3 expressed on BaF3 cells (in words) (BaF3 cells expressing VEGFR-3) | concentration that sufficed to inhibit VEGF-C binding to VEGFR-3 completely, as measured by the MTT cell death assay (GST fusion protein, BaF3-R3/EpoR cells, no IL-3, VEGF-C supplied, 48 h) [µM] | concentration sufficient to completely inhibit VEGF-C/D binding to VEGFR-3 expressed on BaF3 cells (GST fusion protein, BaF3 cells) [µM] |
| --- | --- | --- | --- |
| CGYWLTIWGC (isolated peptide) | competes with VEGF-C binding to VEGFR-3 | – | – |
| GST-CGYWLTIWGC: fusion protein of glutathione-S-transferase (GST) with peptide CGYWLTIWGC, produced in E. coli from pGEX-2T ({GST}-CGYWLTIWGC; cysteine pairing not given here; also: GST fusion, dimerising) | – | 20 | 20 |
